The target of series [1] is TipsytheTRex immunity repressor (WT of study stock) (Mycobacteriophage TipsytheTRex (cluster A)) (UniProt A0A2D1GKF7). As to the kind of experiment: EMSA. As to conditions: 0.25 uM labeled DNA; EMSA: 20 mM Tris pH 7.0, 25 mM NaCl, 1 mM DTT, 100 ug/mL BSA, 5% glycerol, 0.25 uM FAM-DNA, room temperature 30 min, 5% native gel in 1x TAE.
Series [2] concerns the target TipsytheTRex repressor D104A (Mycobacteriophage TipsytheTRex (cluster A)) (UniProt A0A2D1GKF7). As to the kind of experiment: EMSA. The conditions noted are these: 0.25 uM labeled DNA; ~3.5-fold weaker than WT; EMSA: 20 mM Tris pH 7.0, 25 mM NaCl, 1 mM DTT, 100 ug/mL BSA, 5% glycerol, 0.25 uM FAM-DNA, room temperature 30 min, 5% native gel in 1x TAE.

Regarding “ACGGCCCGCTTGACAGCCACCGAAACATCC (double strand) [30-bp optimal]”, the Kd was found to be 59 nM in series [1] and 207 nM in series [2].
